We go through 13 molecules from paper PMC2657470 (Biochemical and biophysical research communications, 2009).

Data set [1] addresses hsEH N-terminal phosphatase. The following applies: cited from earlier work.
Data set [2] concerns the target T1, Phos15739 (Drosophila melanogaster, UniProt Q9VYT0). Description: In vitro inhibition of Phos15739, p-NPP as substrate. The following applies: for inhibitor quality for Phos15739 (in words): p-NPP as substrate.
The next data set has as its target Phos2680 (Drosophila melanogaster, UniProt Q9W4W5). Kind of data set: In vitro inhibition of Phos2680, p-NPP as substrate.
Data set [3] has as its target T1, Phos15739. It counts as biochemical, D. melanogaster. As to conditions: for substrate quality for Phos15739 (in words): isoprenoid mono- and pyrophosphate substrates.
The next data set concerns Phos15739D28A. Kind of data set: Enzymatic activity of variant Phos15739D28A with p-NPP and FPP. It counts as biochemical, D. melanogaster. As to conditions: same reaction conditions as positive control Phos15739; data not shown.
The subject of data set [4] is N-terminal domain of hsEH. The following applies: FPP as substrate of N-terminal domain of hsEH; ref [8]; cited from earlier work.
Substrate in data set [5]: C=C(C)CCOP(=O)(O)O
Description: purified protein, by the assay type.

Substrate in data set [6]: CC(C)=CCC/C(C)=C/CC/C(C)=C/CO[P@@](=O)(O)OP(=O)(O)O
Kind of data set: purified protein, by the assay type. The following applies: other: substrate of Phos15739; IPP, GPP, FPP values are apparent kinetics.

Substrate in data set [7]: C=C(C)CCO[P@@](=O)(O)OP(=O)(O)O
Description: purified protein, by the assay type. As to conditions: other: substrate of Phos15739; IPP, GPP, FPP values are apparent kinetics. It counts as biochemical, D. melanogaster.

Substrate in data set [8]: CC(C)=CCC/C(C)=C/CC/C(C)=C/COP(=O)(O)O
Kind of data set: purified protein, by the assay type. It counts as biochemical, D. melanogaster. As to conditions: other: substrate of Phos15739; IPP, GPP, FPP values are apparent kinetics.

Substrate in data set [9]: CC(C)=CCC/C(C)=C/COP(=O)(O)O
Description: purified protein, by the assay type. As to conditions: other: substrate of Phos15739; IPP, GPP, FPP values are apparent kinetics. It counts as biochemical, D. melanogaster.

Substrate in data set [10]: O=[N+]([O-])c1ccc(OP(=O)(O)O)cc1
Kind of data set: p-NPP phosphatase activity of Phos15739. It counts as biochemical, D. melanogaster. As to conditions: other: p-NPP as substrate of Phos15739, pH 6.0, 2 mM Mg2+.

Substrate in data set [11]: O=[N+]([O-])c1ccc(OP(=O)(O)O)cc1
Kind of data set: p-NPP phosphatase activity of Phos2680. It counts as biochemical, D. melanogaster. As to conditions: other: p-NPP as substrate of Phos2680, pH 6.0, 2 mM Mg2+.

[12] abbreviates: substrate of Phos15739, IPP, GPP, FPP values are apparent kinetics.
The mark [13] stands for this setting: other: substrate of Phos15739, IPP, GPP, FPP values are apparent kinetics.

Read-outs that look alike come from different tables or passages of the source.

Regarding `CC(=O)N[C@@H](CSC/C=C(\C)CC/C=C(\C)CCC=C(C)C)C(=O)O` [N-acetyl-S-farnesyl-L-cysteine], the figures for the IC50 (in data set [1] (ref [8]); on Phos15739 [2]; against Phos2680) were 0.84 µM, 28 ± 6.8 µM and more than 100 µM, respectively.
Regarding `CC(C)=CCC/C(C)=C/CC/C(C)=C/CC/C(C)=C/COP(=O)(O)OP(=O)(O)O` [GGPP, Geranylgeranyl pyrophosphate], on Phos15739 [3], the “substrate quality for Phos15739 (in words)” value (shortened to “substrate quality”) is reported as “not good substrates”.
For `CC(=O)N[C@@H](CSC/C=C(\C)CCC=C(C)C)C(=O)O` [N-acetyl-S-geranyl-L-cysteine], the half-maximal inhibitory concentration (IC50) against Phos15739 [2] is 6.3 ± 1.7 µM; at Phos2680, more than 100 µM.
Consider `C=C(C)CCOP(=O)(O)OP(=O)(O)O` [IPP], for which the “substrate quality” value on Phos15739 [3] is “weak substrates”.
`O=[N+]([O-])c1ccc(OP(=O)(O)O)cc1` [p-NPP, para-nitrophenyl phosphate]: the “enzymatic activity of Phos15739D28A with substrate” value in the data set with Phos15739D28A was “No activity was detected”.
Regarding `CC(C)=CCC/C(C)=C/CC/C(C)=C/CC/C(C)=C/COP(=O)(O)O` [GGMP], the “substrate quality” value at Phos15739 [3] is “not good substrates”.
Consider `CC(=O)N[C@@H](CSC/C=C(\C)CC/C=C(\C)CC/C=C(\C)CCC=C(C)C)C(=O)O` [N-acetyl-S-geranylgeranyl-L-cysteine], for which the IC50 at Phos15739 [2] was 4.4 ± 2 µM; against Phos2680, 14 ± 1.9 µM.
Take `CC(C)=CCC/C(C)=C/CC/C(C)=C/COP(=O)(O)OP(=O)(O)O` [FPP, farnesyl pyrophosphate]: in [4], the turnover number was 0.25 ± 0.07 s⁻¹. Moreover, the “enzymatic activity of Phos15739D28A with substrate” value in the data set with Phos15739D28A is given as “No activity was detected”.
Take `CC(C)=CCC/C(C)=C/COP(=O)(O)OP(=O)(O)O` [GPP]: on Phos15739 [3], the “substrate quality” value is “weak substrates”. On Phos15739 [3] (setting [12]), the “Kcat (s^−1±S.E.)” value was determined as 0.78 ± 0.09 s⁻¹ and the “Vmax (μmol.min^−1mg^−1±S.E.)” value was 1.4 ± 1.5 µmol/min/mg.
For `CC(C)=CCC/C(C)=C/CC/C(C)=C/CSCC(=O)O` [S-Farnesyl-thioacetic acid], on Phos15739 [2], the IC50 is more than 100 µM and the “inhibitor quality for Phos15739 (in words)” value was “poor inhibitors”. The molecule further yielded a half-inhibitory concentration (IC50) against Phos2680 of 5.1 ± 1.4 µM.
`C[C@H](CCC(=O)NCCS(=O)(=O)O)[C@H]1CC[C@H]2[C@@H]3CC[C@@H]4C[C@H](OS(=O)(=O)O)CC[C@]4(C)[C@H]3CC[C@]12C` [Taurolithocholic acid 3-sulfate, taurolithocholic acid 3-sulfate]: the IC50 in data set [1] (ref [12]) is 5 µM; against Phos15739 [2] it was more than 100 µM; against Phos2680 it was more than 100 µM. Besides, the “inhibitor quality for Phos15739 (in words)” value against Phos15739 [2] was “poor inhibitors”.

B1: Phos15739 (Drosophila melanogaster) (protein)
chain: MAKPQHILQLSQEQRSSVVDSFDRVVSDIDGVLWTFEQSIPRAADGYAALEQMGKHLTFLTNNSVRTSEQCVKLFAKIGMQVHPEQIWHPAKSIVSYLQSIKFEGLIYIIASQSFKTVLREAGFQLLDGPNEFIEESYASLAEHIFGKEPVRAVIIDVDFNLTSPKILRAHLYLRHPECMLIEGATDRLLPVAKEVNIVGPGAFASILVEASGKQPITLGKPGRELGDLLVEHYQIVQPSRVLMIGDMLAQDVSFGRQCGFQTLLVLSGGCSKEELLAETDPQRIPDYYADSVADVAQMLGEAPKSRV
Turning to B1, the Km in [5] (setting [13]) turned out to be 84 ± 27 µM; in data set [6], 48 ± 13 µM; in data set [7], 430 ± 150 µM; in data set [8], 160 ± 20 µM; in data set [9], 81 ± 6.7 µM; in data set [10], 240 µM. Besides, the Vmax worked out at 18 ± 2.7 µmol/min/mg in [5] (setting [13]); 18 ± 1.8 µmol/min/mg in [6]; 2.1 ± 0.39 µmol/min/mg in data set [7]; 85 ± 4.2 µmol/min/mg in [8]; 250 ± 9.3 µmol/min/mg in [9]; 6.1 µmol/min/mg in data set [10]. Moreover, the kcat in data set [5] (setting [13]) is 10 ± 1.5 s⁻¹; in data set [6], 10 ± 1.04 s⁻¹; in [7] it was 1.2 ± 0.22 s⁻¹; in data set [8] it was 49 ± 2.4 s⁻¹; in data set [9] it was 140 ± 5.3 s⁻¹. Moreover, the kcat/Km in [5] (setting [13]) was 120000 M⁻¹ s⁻¹; in [6], 2.1 X 10^5 M^−1 s^−1; in data set [7] it was 2700 M⁻¹ s⁻¹; in data set [8], 310000 M⁻¹ s⁻¹; in data set [9], 1.8e+06 M⁻¹ s⁻¹.

B2: Phos2680 (Drosophila melanogaster) (protein)
chain: MSPPRHILKLSLEEQRQFIDSFDLVISDCDGVVWLLVGWIPNTGAAVNALKAAGKQIKFVSNNSFRSEEDYMEKFRHIGAKNVQEDDIVHPVKTIVRYLKKHKPGERVYSLMSLEANETLRKHNIEFESLQVKEHLTAASLVDHLAIEKPVGAVLFDIHLDLSYVELAKAIRHLQENDDCQLIAGGSDVIMPLAENLNVAGFFDFLEHVKRYTQREATFLGKPSPILGEMFGEMFEIRDCKRCIFIGDTLVQDVQFGKACGFQSLLVLSGCLTKEDMLNAPVEAQPDYYADSLADFTQLLENIQK
B2: in data set [5] (other: substrate of Phos2680), the Km stood at 35 µM and the Vmax was determined as 59 µmol/min/mg. Besides, in data set [11], the Km came to 640 µM and the Vmax was determined as 36 µmol/min/mg.
